Measurements from patent US20260098102A1 (NATIONAL UNIVERSITY CORPORATION KOBE UNIVERSITY, published 2026).

Key:
mouse SIRPA_129 = molecular target: T1, mouse SIRPA_129 (mouse (129), UniProt P97797 32-513); test: cell-based ELISA, transfected 293α cells
T1 construct: FLAG-tagged (pFLAG V5-DEST), on 293α cells; also called 129sv
T1 chain: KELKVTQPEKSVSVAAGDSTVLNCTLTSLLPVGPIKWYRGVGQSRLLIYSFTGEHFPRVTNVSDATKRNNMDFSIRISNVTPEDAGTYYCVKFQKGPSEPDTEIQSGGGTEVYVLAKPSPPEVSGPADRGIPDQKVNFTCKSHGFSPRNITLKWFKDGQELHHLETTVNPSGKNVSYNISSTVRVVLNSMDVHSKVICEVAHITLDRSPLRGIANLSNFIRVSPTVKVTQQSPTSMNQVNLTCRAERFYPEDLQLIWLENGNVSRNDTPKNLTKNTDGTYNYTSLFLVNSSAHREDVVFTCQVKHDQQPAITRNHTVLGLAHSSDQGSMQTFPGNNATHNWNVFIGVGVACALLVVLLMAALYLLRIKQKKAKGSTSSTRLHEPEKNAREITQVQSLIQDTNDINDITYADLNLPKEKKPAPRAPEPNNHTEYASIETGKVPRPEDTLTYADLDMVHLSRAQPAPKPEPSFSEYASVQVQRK
Method: (§1) After the culture supernatant of 293α cells into which the pFLAG V5-DEST-monkey SIRPA or pFLAG V5-DEST-mouse SIRPA expression vector was introduced and the pFLAG V5-DEST-introduced 293α cells prepared in Example 1)-5-2 was removed, binding to monkey or mouse SIRPA was evaluated in the same manner as for the binding activity of human SIRPA.

mouse SIRPA_C57BL/6 = molecular target: T2, mouse SIRPA_C57BL/6 (mouse (C57BL/6), UniProt P97797 32-513); test: cell-based ELISA, transfected 293α cells
T2 construct: FLAG-tagged (pFLAG V5-DEST), on 293α cells
T2 sequence: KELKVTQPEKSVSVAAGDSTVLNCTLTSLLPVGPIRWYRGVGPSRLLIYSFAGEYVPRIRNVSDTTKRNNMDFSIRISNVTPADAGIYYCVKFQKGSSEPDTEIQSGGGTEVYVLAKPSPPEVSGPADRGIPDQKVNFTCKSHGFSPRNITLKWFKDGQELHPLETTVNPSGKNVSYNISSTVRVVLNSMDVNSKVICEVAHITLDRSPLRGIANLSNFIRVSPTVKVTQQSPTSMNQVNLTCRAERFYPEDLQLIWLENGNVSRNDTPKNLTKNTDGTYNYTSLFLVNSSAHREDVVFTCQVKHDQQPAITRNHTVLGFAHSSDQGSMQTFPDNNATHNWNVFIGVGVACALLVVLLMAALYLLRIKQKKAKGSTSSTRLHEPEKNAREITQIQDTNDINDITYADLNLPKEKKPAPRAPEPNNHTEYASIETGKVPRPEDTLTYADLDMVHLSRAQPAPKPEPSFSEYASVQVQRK
Method: as §1

mouse SIRPA_NOD = molecular target: T3, mouse SIRPA_NOD (mouse (NOD), UniProt P97797 32-513); test: cell-based ELISA, transfected 293α cells
T3 construct: FLAG-tagged (pFLAG V5-DEST), on 293α cells; also called NOD SCID
T3 chain: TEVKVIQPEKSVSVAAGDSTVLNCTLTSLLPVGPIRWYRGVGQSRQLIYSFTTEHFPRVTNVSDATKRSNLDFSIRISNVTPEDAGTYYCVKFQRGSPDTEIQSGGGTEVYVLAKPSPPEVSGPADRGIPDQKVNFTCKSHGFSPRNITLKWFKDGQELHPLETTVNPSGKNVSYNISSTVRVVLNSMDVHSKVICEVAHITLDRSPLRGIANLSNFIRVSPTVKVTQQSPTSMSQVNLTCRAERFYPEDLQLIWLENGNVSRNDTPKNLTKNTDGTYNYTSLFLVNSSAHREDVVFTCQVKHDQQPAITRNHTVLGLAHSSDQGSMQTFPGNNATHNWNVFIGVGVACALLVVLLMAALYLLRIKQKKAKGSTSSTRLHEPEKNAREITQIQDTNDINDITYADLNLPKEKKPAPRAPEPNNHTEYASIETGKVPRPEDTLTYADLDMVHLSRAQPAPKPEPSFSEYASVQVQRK
Method: as §1

mouse SIRPA BALB/c = molecular target: T4, mouse SIRPA BALB/c (mouse (BALB/c), UniProt P97797 35-513); test: cell-based ELISA, transfected 293α cells
T4 construct: FLAG-tagged (pFLAG V5-DEST), on 293α cells
T4 chain: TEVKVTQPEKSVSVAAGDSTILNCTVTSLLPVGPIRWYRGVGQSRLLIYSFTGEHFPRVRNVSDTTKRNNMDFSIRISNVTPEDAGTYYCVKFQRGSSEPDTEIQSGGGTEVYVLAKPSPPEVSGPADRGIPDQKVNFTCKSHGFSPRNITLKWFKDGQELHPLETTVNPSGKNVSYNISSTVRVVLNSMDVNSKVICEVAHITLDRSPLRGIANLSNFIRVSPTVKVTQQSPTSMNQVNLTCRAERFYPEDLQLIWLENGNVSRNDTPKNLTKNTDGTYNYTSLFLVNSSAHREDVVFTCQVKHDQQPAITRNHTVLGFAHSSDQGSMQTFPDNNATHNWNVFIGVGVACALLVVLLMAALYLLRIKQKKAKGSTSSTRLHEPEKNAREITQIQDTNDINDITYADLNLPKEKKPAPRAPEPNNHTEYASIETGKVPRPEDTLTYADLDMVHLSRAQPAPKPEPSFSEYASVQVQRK
Method: as §1

human SIRPB = molecular target: T5, human SIRPB (human, UniProt O00241 30-398); test: flow cytometry on CHO-K1 cells expressing FLAG-tagged human SIRPB; PE anti-human IgG; MFI standardized to secondary antibody alone
T5 construct: whole, on cells; FLAG-tagged (pFLAG V5-DEST), on CHO-K1 cells; also called SIRPβ1; signal regulatory protein β1
Method: SIRPβ1 (signal regulatory protein β1: the amino acid sequence thereof is published as RefSeq accession number NP_006056) and SIRPγ (signal regulatory protein γ: the amino acid sequence thereof is published as RefSeq accession number NP_061026) are molecules belonging to the SIRPA family. In the present invention, “SIRPα” may be referred to as “SIRPA,” “SIRPβ1” may be referred to as […] and “SIRPγ” may be referred to as “SIRPG.” CHO-K1 cells were prepared in a 10% FBS-containing Ham's F-12K medium at 3.3×10⁵ cells/mL and cultured overnight at 37° C. under a 5% CO₂ condition. pFLAG V5-DEST-human SIRPβ, pFLAG V5-DEST-human SIRPG, or pFLAG V5-DEST was introduced into the cells using Lipofectamine LTX (Invitrogen), and cells were cultured in a 10% FBS-containing Ham's F-12K medium at 37° C. under a 5% CO₂ condition for 24 hours. The obtained introduced cells were collected and seeded on a 96-well plate. After the culture supernatant was removed, 100 μL per well of various anti-human SIRPA antibodies or various control human IgG was added to each of various gene introduced cells at a final concentration of 0 to 10,000 ng/mL, and the mixture was allowed to stand at 4° C. for 25 minutes. After the mixture was centrifuged, the supernatant was removed, and cells were washed twice with 5% FBS-containing PBS. After the mixture was centrifuged, the supernatant was removed, 50 μL per well of a 1/400 diluted solution of PE Mouse anti-Human IgG antibody (BioLegend) was added, and the mixture was allowed to stand at 4° C. for 25 minutes. After the mixture was centrifuged, the supernatant was removed, and cells were washed twice with 5% FBS-containing PBS.
(§2) After the mixture was centrifuged, and the supernatant was removed, cells were suspended in 100 μL per well of 1× BD Stabilizing Fixative (Becton Dickinson), and the cell count was measured by flow cytometry (FACS Canto II: Becton Dickinson). For data analysis, FlowJo (TreeStar) was used. Cells were characterized by detecting forward scattered (FSC) light and side-scattered (SSC) light, and then the mean fluorescence intensity of PE was calculated. Binding of various antibodies to the family molecules was calculated by standardizing the fluorescence intensity using the mean fluorescence intensity of a sample in which the secondary antibody alone was allowed to react.

SIRPA_V1_IgV = molecular target: T6, SIRPA_V1_IgV (human, UniProt P78324 31-149); test: SPR Biacore T200, antibody captured on anti-human IgG (Fc), SIRPA_V1_IgV as analyte (0.25 to 16 nM), 1:1 model
T6 construct: Secreted recombinant protein from FreeStyle 293F cells
Method: (§3) The dissociation constants were measured by a capture method comprising capturing each antibody as a ligand to an Anti-Human IgG (Fc) antibody immobilized using Human Antibody Capture Kit (GE Healthcare Bioscience Corp.) and measuring an antigen as an analyte, using Biacore T200 (GE Healthcare Bioscience Corp.). HBS-EP+ (GE Healthcare Bioscience Corp.) was used as a running buffer, and CM5 (GE Healthcare Bioscience Corp.) was used as a sensor chip. Onto the chip, 2 μg/mL of various antibodies were added at 10 μL/min for 30 seconds, then a serially diluted solution (0.25 to 16 nM) of the human SIRPA protein as an antigen was added at a flow rate of 30 μL/min for 120 seconds, and subsequently the dissociation phase for 600 seconds was monitored. As a regenerant, 3 M magnesium chloride (GE Healthcare Bioscience Corp.) was added at a flow rate of 20 μL/min for 30 seconds. For data analysis, a binding rate constant (ka), a dissociation rate constant (kd), and a dissociation constant (KD; KD=kd/ka) were calculated using a 1:1 binding model.

SIRPA_V2_IgV = molecular target: T7, SIRPA_V2_IgV (human); test: SPR Biacore T200, antibody captured on anti-human IgG (Fc), SIRPA_V2_IgV as analyte (0.25 to 16 nM), 1:1 model
T7 construct: Secreted recombinant protein; The crystal model held residues 33 to 143 of human SIRPA Variant 2
Method: as §3

human SIRPG = molecular target: T8, human SIRPG (human, UniProt Q9P1W8 29-387); test: flow cytometry on CHO-K1 cells expressing FLAG-tagged human SIRPG; PE anti-human IgG; MFI standardized to secondary antibody alone
T8 construct: whole, on cells; FLAG-tagged (pFLAG V5-DEST), on CHO-K1 cells; also called SIRPγ; signal regulatory protein γ
Method: SIRPβ1 (signal regulatory protein β1: the amino acid sequence thereof is published as RefSeq accession number NP_006056) and SIRPγ (signal regulatory protein γ: the amino acid sequence thereof is published as RefSeq accession number NP_061026) are molecules belonging to the SIRPA family. In the present invention, “SIRPα” may be referred to as “SIRPA,” “SIRPβ1” may be referred to as […] and “SIRPγ” may be referred to as “SIRPG.” CHO-K1 cells were prepared in a 10% FBS-containing Ham's F-12K medium at 3.3×10⁵ cells/mL and cultured overnight at 37° C. under a 5% CO₂ condition. pFLAG V5-DEST-human SIRPβ, pFLAG V5-DEST-human SIRPG, or pFLAG V5-DEST was introduced into the cells using Lipofectamine LTX (Invitrogen), and cells were cultured in a 10% FBS-containing Ham's F-12K medium at 37° C. under a 5% CO₂ condition for 24 hours. The obtained introduced cells were collected and seeded on a 96-well plate. After the culture supernatant was removed, 100 μL per well of various anti-human SIRPA antibodies or various control human IgG was added to each of various gene introduced cells at a final concentration of 0 to 10,000 ng/mL, and the mixture was allowed to stand at 4° C. for 25 minutes. After the mixture was centrifuged, the supernatant was removed, and cells were washed twice with 5% FBS-containing PBS. […]
as §2, with “For data analysis, FlowJo (TreeStar) was used.” left out

human SIRPA_V1 protein = molecular target: T9, human SIRPA_V1 protein (human, UniProt P78324 31-504); test: blocking cell-based ELISA: peroxidase-labeled CD47-Fc (1 µg/mL) on 293α cells expressing SIRPA_V1
T9 construct: Expressed on 293α cells from pcDNA3.2 V5-DEST or pFLAG V5-DEST (FLAG-tagged) vectors; also called human SIRPA Variant 1; hSIRPA V1
Method: (§4) After the culture supernatant of the human SIRPA_V1 or V2 expression vector-introduced 293 cells prepared in Example 9)-1 was removed, 50 μL per well of various anti-SIRPA antibodies or various control Human IgG diluted with 5% FBS-containing PBS to a final concentration of 0 to 10,000 ng/ml was added to each of pcDNA3.2 V5-DEST-SIRPA_V1 or V2-introduced 293α cells, immediately followed by addition of 50 µL per well of peroxidase-labeled CD47-Fc prepared with 5% FBS-containing PBS at 1 μg/mL, and the mixture was allowed to stand at 4° C. for one hour. Thereafter, the SIRPA-CD47 binding inhibitory activity was evaluated in the same manner as in 1)-6-3.

human SIRPA_V2 protein = molecular target: T10, human SIRPA_V2 protein (human, UniProt P78324 31-504); test: blocking cell-based ELISA: peroxidase-labeled CD47-Fc (1 µg/mL) on 293α cells expressing SIRPA_V2
T10 construct: Expressed on 293α cells from pcDNA3.2 V5-DEST or pFLAG V5-DEST (FLAG-tagged) vectors; also called human SIRPA Variant 2; ECD variant (full-length, amino acids 1 to 504)
Method: as §4

T6 sequence (P78324 other isoform, or with tags, fused parts or gaps limits assumed): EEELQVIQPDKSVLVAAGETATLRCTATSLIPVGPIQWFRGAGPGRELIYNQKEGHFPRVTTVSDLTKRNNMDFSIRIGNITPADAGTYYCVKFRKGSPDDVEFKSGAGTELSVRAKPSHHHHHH
T7 sequence (chain, as listed by the source limits assumed): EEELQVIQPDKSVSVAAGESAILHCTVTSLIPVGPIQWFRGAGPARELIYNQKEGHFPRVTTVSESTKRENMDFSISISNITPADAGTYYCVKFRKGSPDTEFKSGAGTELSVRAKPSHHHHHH
T10 sequence (P78324 other isoform, or with tags, fused parts or gaps limits assumed): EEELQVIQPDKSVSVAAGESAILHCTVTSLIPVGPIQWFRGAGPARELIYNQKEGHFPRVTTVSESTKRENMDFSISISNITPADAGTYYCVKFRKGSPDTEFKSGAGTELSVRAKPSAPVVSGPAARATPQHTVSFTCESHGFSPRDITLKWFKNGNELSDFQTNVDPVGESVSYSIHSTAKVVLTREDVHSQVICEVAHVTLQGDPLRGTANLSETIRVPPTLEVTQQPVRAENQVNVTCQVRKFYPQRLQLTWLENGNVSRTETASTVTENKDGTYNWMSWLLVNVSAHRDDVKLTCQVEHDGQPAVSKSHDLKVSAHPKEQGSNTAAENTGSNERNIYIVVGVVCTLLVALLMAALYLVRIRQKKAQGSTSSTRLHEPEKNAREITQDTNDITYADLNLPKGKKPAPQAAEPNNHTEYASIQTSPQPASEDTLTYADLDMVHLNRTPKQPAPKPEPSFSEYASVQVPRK
T5 sequence (O00241 30-398): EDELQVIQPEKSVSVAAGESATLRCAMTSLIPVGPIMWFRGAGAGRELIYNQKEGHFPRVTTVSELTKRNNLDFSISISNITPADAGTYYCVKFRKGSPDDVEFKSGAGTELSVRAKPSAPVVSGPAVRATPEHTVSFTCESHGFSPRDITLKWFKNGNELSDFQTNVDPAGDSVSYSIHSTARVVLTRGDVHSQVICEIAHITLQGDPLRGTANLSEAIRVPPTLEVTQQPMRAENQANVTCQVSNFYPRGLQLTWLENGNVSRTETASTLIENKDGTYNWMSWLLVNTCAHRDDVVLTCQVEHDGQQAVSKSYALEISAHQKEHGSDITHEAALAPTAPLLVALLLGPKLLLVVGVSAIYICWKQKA
T8 sequence (Q9P1W8 29-387): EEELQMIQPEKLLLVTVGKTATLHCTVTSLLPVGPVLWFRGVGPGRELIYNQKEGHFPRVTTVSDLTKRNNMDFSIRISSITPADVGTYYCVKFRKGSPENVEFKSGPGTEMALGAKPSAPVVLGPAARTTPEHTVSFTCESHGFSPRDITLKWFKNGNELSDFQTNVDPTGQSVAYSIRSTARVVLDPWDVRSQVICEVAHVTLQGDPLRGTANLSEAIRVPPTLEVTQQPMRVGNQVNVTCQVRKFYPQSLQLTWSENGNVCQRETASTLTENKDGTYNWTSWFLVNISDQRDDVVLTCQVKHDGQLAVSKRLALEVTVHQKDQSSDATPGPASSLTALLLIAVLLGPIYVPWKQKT
T9 sequence (P78324 31-504 limits assumed): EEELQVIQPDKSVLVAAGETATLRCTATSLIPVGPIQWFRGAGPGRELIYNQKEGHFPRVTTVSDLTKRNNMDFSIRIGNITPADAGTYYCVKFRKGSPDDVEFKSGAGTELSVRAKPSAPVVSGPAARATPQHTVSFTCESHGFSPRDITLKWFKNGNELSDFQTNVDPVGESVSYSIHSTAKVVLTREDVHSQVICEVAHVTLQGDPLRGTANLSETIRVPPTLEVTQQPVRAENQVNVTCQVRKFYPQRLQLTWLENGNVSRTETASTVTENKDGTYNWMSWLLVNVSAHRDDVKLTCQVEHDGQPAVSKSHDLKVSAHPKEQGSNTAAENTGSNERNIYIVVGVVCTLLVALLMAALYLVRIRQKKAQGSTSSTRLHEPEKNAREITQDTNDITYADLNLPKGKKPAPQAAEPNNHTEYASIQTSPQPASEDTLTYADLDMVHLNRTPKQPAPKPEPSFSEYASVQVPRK

B1: rat anti-human SIRPA monoclonal antibody D13 (antibody, V domains shown)
VH: EVQLVESGGGLVQPGRSLKLSCLASGFTFSDYGMIWVRQAPGKGLEWVASISSSSSYIYYADTVKGRFTISRENAKNTLFLHMTSLRSEDTALYYCARRYYGFNYPFDYWGQGVMVTVSS
VL: DTVLTQSPALAVSLGQRVTISCGASKSVRTYMHWYQQKSGQQPKLLIYSASNLEAGVPSRFSGSGSGTDFTLTIDPVEADDIANYYCQQSNEPPYTFGAGTKLELK
notes: Rat IgG1/kappa purified from hybridoma
binding result (mouse SIRPA_129): no binding
binding result (mouse SIRPA_C57BL/6): no binding
binding result (mouse SIRPA_NOD): no binding
binding result (mouse SIRPA BALB/c): no binding

B2: KWAR23 (antibody, human IgG4 S228P, kappa, V domains shown)
VH: EVQLQQSGAELVKPGASVKLSCTASGFNIKDYYIHWVQQRTEQGLEWIGRIDPEDGETKYAPKFQDKATITADTSSNTAYLHLSSLTSEDTAVYYCARWGAYWGQGTLVTVSA
VL: QIVLTQSPAIMSASPGEKVTLTCSASSSVSSSYLYWYQQKPGSSPKLWIYSTSNLASGVPARFSGSGSGTSYSLTISSMEAEDAASYFCHQWSSYPRTFGAGTKLELKR
notes: IgG4Pro heavy chain; also called KWAR23_hG4Pro / KWAR23_hK
binding result (human SIRPB): binds
Kd (SIRPA_V1_IgV): 2.55 nM
Kd (SIRPA_V2_IgV): 4.46 nM
EC50 (read off the curve) (human SIRPG): ~0.03 µg/mL
IC50 (human SIRPA_V1 protein): 2.24 µg/mL
IC50 (human SIRPA_V2 protein): 2.19 µg/mL
